Experimental data reported in patent US20190241648A1 (STATEN BIOTECHNOLOGY B V, published 2019).
Ends that are not written are not given here.

Tests used:
Experiment in all cases: peptide microarray
ApoC3 peptide … T44Q = biological target: T1, ApoC3 peptide … T44Q (human, not fully specified (bridges); also: cyclic constrained)
T1 peptide: ARGWVQDGFSSLK
Procedure, shortened: (§1)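 Peptide microarrays of ApoC3-derived peptides incubated with antibody samples, then stained with goat anti-human IgG (Fc) DyLight680 (1:5000) and anti-HA DyLight800 (1:2000) control. Read-out by fluorescence scanning at intensities 7/7 (red/green); a secondary-only pre-stain checked background, HA frame peptides served as quality control.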

ApoC3 peptide … T44H = biological target: T2, ApoC3 peptide … T44H (human, not fully specified (bridges); also: cyclic constrained)
T2 peptide: ARGWVHDGFSSLK
Procedure, shortened: as §1

ApoC3 peptide … L50E = biological target: T3, ApoC3 peptide … L50E (human, not fully specified; cyclic constrained)
T3 peptide: ARGWVTDGFSSEK
Procedure, shortened: as §1

ApoC3 peptide … L50A = biological target: T4, ApoC3 peptide … L50A (human, not fully specified; cyclic constrained)
T4 peptide: ARGWVTDGFSSAK
Procedure, shortened: as §1

ApoC3 peptide … S49T = biological target: T5, ApoC3 peptide … S49T (human, not fully specified (bridges); also: cyclic constrained)
T5 peptide: ARGWVTDGFSTLK
Procedure, shortened: as §1

ApoC3 peptide … S48K = ApoC3 peptide … S48K (human, cyclic constrained)
Procedure, shortened: as §1

ApoC3 peptide … S48G = biological target: T6, ApoC3 peptide … S48G (human, not fully specified; cyclic constrained)
T6 peptide: ARGWVTDGFGSLK
Procedure, shortened: as §1

ApoC3 peptide … R40F = biological target: T7, ApoC3 peptide … R40F (human, not fully specified (bridges); also: cyclic constrained)
T7 peptide: AFGWVTDGFSSLK
Procedure, shortened: as §1

ApoC3 peptide … D45C = biological target: T8, ApoC3 peptide … D45C (human, not fully specified (bridges); also: cyclic constrained)
T8 peptide: ARGWVTCGFSSLK
Procedure, shortened: as §1

ApoC3 peptide … S48Q = ApoC3 peptide … S48Q (human, cyclic constrained)
Procedure, shortened: as §1

ApoC3 peptide … W42Y = biological target: T9, ApoC3 peptide … W42Y (human, not fully specified (bridges); also: cyclic constrained)
T9 peptide: ARGYVTDGFSSLK
Procedure, shortened: as §1

ApoC3 peptide … G41F = biological target: T10, ApoC3 peptide … G41F (human, also: cyclic constrained)
T10 peptide: ARFWVTDGFSSLK
Procedure, shortened: as §1

ApoC3 peptide … F47P = biological target: T11, ApoC3 peptide … F47P (human, not fully specified (bridges); also: cyclic constrained)
T11 peptide: ARGWVTDGPSSLK
Procedure, shortened: as §1

ApoC3 peptide … L50W = biological target: T12, ApoC3 peptide … L50W (human, not fully specified (bridges); also: cyclic constrained)
T12 peptide: ARGWVTDGFSSWK
Procedure, shortened: as §1

ApoC3 peptide … S48E = ApoC3 peptide … S48E (human, cyclic constrained)
Procedure, shortened: as §1

ApoC3 peptide … S48H = ApoC3 peptide … S48H (human, cyclic constrained)
Procedure, shortened: as §1

ApoC3 peptide … S48F = biological target: T13, ApoC3 peptide … S48F (human, not fully specified; cyclic constrained)
T13 peptide: ARGWVTDGFFSLK
Procedure, shortened: as §1

ApoC3 peptide … F47T = biological target: T14, ApoC3 peptide … F47T (human, also: cyclic constrained)
T14 peptide: ARGWVTDGTSSLK
Procedure, shortened: as §1

ApoC3 peptide … K51L = biological target: T15, ApoC3 peptide … K51L (human, not fully specified; cyclic constrained)
T15 peptide: ARGWVTDGFSSLL
Procedure, shortened: as §1

ApoC3 peptide … D45E = biological target: T16, ApoC3 peptide … D45E (human, not fully specified (bridges); also: cyclic constrained)
T16 peptide: ARGWVTEGFSSLK
Procedure, shortened: as §1

ApoC3 peptide … T44N = biological target: T17, ApoC3 peptide … T44N (human, not fully specified (bridges); also: cyclic constrained)
T17 peptide: ARGWVNDGFSSLK
Procedure, shortened: as §1

ApoC3 peptide … D45W = biological target: T18, ApoC3 peptide … D45W (human, cyclic constrained)
T18 peptide: ARGWVTWGFSSLK
Procedure, shortened: as §1

ApoC3 peptide … G46K = biological target: T19, ApoC3 peptide … G46K (human, not fully specified (bridges); also: cyclic constrained)
T19 peptide: ARGWVTDKFSSLK
Procedure, shortened: as §1

ApoC3 peptide … G46Y = biological target: T20, ApoC3 peptide … G46Y (human, thioether (positions not given here); also: cyclic constrained)
T20 peptide: ARGWVTDYFSSLK
Procedure, shortened: as §1

ApoC3 peptide … D45H = biological target: T21, ApoC3 peptide … D45H (human, cyclic constrained)
T21 peptide: ARGWVTHGFSSLK
Procedure, shortened: as §1

ApoC3 peptide … K51C = biological target: T22, ApoC3 peptide … K51C (human, thioether (positions not given here); also: cyclic constrained)
T22 peptide: ARGWVTDGFSSLC
Procedure, shortened: as §1

ApoC3 peptide … W42A = biological target: T23, ApoC3 peptide … W42A (human, not fully specified (bridges); also: cyclic constrained)
T23 peptide: ARGAVTDGFSSLK
Procedure, shortened: as §1

ApoC3 peptide … D45A = biological target: T24, ApoC3 peptide … D45A (human, not fully specified (bridges); also: cyclic constrained)
T24 peptide: ARGWVTAGFSSLK
Procedure, shortened: as §1

ApoC3 peptide … F47R = biological target: T25, ApoC3 peptide … F47R (human, also: cyclic constrained)
T25 peptide: ARGWVTDGRSSLK
Procedure, shortened: as §1

ApoC3 peptide … S49E = biological target: T26, ApoC3 peptide … S49E (human, cyclic constrained)
T26 peptide: ARGWVTDGFSELK
Procedure, shortened: as §1

ApoC3 peptide … D45Q = biological target: T27, ApoC3 peptide … D45Q (human, cyclic constrained)
T27 peptide: ARGWVTQGFSSLK
Procedure, shortened: as §1

% of binding to wild-type peptide (ApoC3 peptide … T44Q): 0%
% of binding to wild-type peptide (ApoC3 peptide … T44H): 0.92%
% of binding to wild-type peptide (ApoC3 peptide … L50E): 0%
% of binding to wild-type peptide (ApoC3 peptide … L50A): 0%
% of binding to wild-type peptide (ApoC3 peptide … S49T): 6.21%
% of binding to wild-type peptide (ApoC3 peptide … S48K): 90%
% of binding to wild-type peptide (ApoC3 peptide … S48G): 3.7%
% of binding to wild-type peptide (ApoC3 peptide … R40F): 70.8%
% of binding to wild-type peptide (ApoC3 peptide … D45C): 11.2%
% of binding to wild-type peptide (ApoC3 peptide … S48Q): 46.8%
% of binding to wild-type peptide (ApoC3 peptide … W42Y): 149%
% of binding to wild-type peptide (ApoC3 peptide … G41F): 10.8%
% of binding to wild-type peptide (ApoC3 peptide … F47P): 0%
% of binding to wild-type peptide (ApoC3 peptide … L50W): 17.7%
% of binding to wild-type peptide (ApoC3 peptide … S48E): 290%
% of binding to wild-type peptide (ApoC3 peptide … S48H): 11.5%
% of binding to wild-type peptide (ApoC3 peptide … S48F): 9.29%
% of binding to wild-type peptide (ApoC3 peptide … F47T): 0%
% of binding to wild-type peptide (ApoC3 peptide … K51L): 0.33%
% of binding to wild-type peptide (ApoC3 peptide … D45E): 40%
% of binding to wild-type peptide (ApoC3 peptide … T44N): 2.49%
% of binding to wild-type peptide (ApoC3 peptide … D45W): 0.06%
% of binding to wild-type peptide (ApoC3 peptide … G46K): 0.24%
% of binding to wild-type peptide (ApoC3 peptide … G46Y): 0%
% of binding to wild-type peptide (ApoC3 peptide … D45H): 1.81%
% of binding to wild-type peptide (ApoC3 peptide … K51C): 0%
% of binding to wild-type peptide (ApoC3 peptide … W42A): 116%
% of binding to wild-type peptide (ApoC3 peptide … D45A): 45.3%
% of binding to wild-type peptide (ApoC3 peptide … F47R): 0%
% of binding to wild-type peptide (ApoC3 peptide … S49E): 0%
% of binding to wild-type peptide (ApoC3 peptide … D45Q): 21%
B1: anti-ApoC3 antibody 14C7 (antibody, V domains shown)
VH: QVQVQESGPGLVKPSQTLSLTCTVSGGSITTNSYYWSWIRQPPGKGLEWMGAIDYSGDTYYSPSLKSRTSISRDTSKNQFTLQLTSVTPEDTAVYYCVSRIPTGEYWGQGTQVTVSS
VL: QTVVTQEPSLSVSPGGTVTLTCGLNSGSVTSSNYPDWYQQTPGQAPRLLIYNTNSRHSGVPSRFSGSISGNKAALTITGAQPEDEADYYCALYMGSDSVVFGGGTHLTVL
notes: it was detected with goat anti-human IgG (Fc); also called mAb 14C7; llama antibody 14C7
